Experimental data from the nanobody polyreactivity screen of Harvey et al. (2022).

Assay: yeast display, Sf9 membrane polyspecificity reagent, FACS + sequencing; frameworks hold sequencing errors
Summary of the method: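 In a synthetic yeast display library (Saccharomyces cerevisiae BJ5465), nanobody expression was induced with galactose for 36–48 hours. FACS gates were set low and high (top ~1%) using anti-HA fluorescence for expression and streptavidin fluorescence for binding of the Sf9 membrane reagent. Each polyreactivity label is drawn from the gate of origin.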

Row | Sequence | polyreactivity (PSR sort gate)
1 | QVQLVESGGGLVQAGGSLRLSCAASGITFSYNAMGWYRQAPGKERELVAAISDIGGSTYYADSVKGRFTISRDNAKNTVYLQMNSLKPEDTAVYYCAADEYYQDESDYWGQGTQVTVSS | low polyreactivity
2 | QVQLVESGGGLVQAGGSLRLSCAASGITFTENVMGWYRQAPGKERELVAGISRSGGITYYADSVKGRFTISRDNAKNTVYLQMNSLKPEDTAVYYCAAEEAYRSRRGGFDYWGQGTQVTVSS | high polyreactivity
3 | QVQLVESGGGLVQAGGSLRLSCAASGITFTFNAMGWYRQAPGKERELVAAITWSGGSTFYADSVKGRFTITRDNAKNTVYLQMNSLKPEDTAVYYCARDTELYVRWLDYWGQGTQVTVSS | low polyreactivity
4 | QVQLVESGGGLVQAGGSLRLSCAASGITFTGYAMGWYRQAPGKERELVAAITSGGGRTYYADSVKGRFTISRDNAKNTVYLQMNSLKPEDTAVYYCATRYVTIVGYDYWGQGTQVTVSS | high polyreactivity
5 | QVQLVESGGGLVQAGGSLRLSCAASGITFTIYAMGCNRQAPGKERELVAAITWTSDITHYADSVKGRVTISRDNAKNTDYLQMNSLKPEDTAVYYCGATTWDEYDYWGQGTQVTVSW | high polyreactivity
6 | QVQLVESGGGLVQAGGSLRLSCAASGITFTRNVMGWYRQAPGKERELVAAISGSGGSTYYADSVKGRFTISRDNAKNTFYLQMNSLKPEDTAVYYCAARSRGGRRYDYWGQGTQVTVSS | high polyreactivity
7 | QVQLVESGGGLVQAGGSLRLSCAASGITFTSYAMGWYRQAPGKERELVAAISSSGVRTYYADSVKGRFTISRDNAKNTVYLQMNSLKPEDTAVYYCATRRRVLYGYDYWGQGTQVTVSS | high polyreactivity
8 | QVQLVESGGGLVQAGGSLRLSCAASGITFTSYAMGWYRQATGKERELVAAITSSGSSTYYADSVKGRFTISRDNAKNTVYLQMNSLKPEDTAVYYCAAKHVGWYVQEEDYWGQGTQVTVSS | low polyreactivity
9 | QVQLVESGGGLVQAGGSLRLSCAASGITFTSYVMGWYRQAPGKERELVAAIRWSGGRTYYADSVKGRFTISRDNAKNTVYLQLNSLKPEDTAVYYCNRVTRSHVDYWGQGTQVTVSS | high polyreactivity
10 | QVQLVESGGGLVQAGGSLRLSCAASGITFTVNAMGWYRQSPGKERELVAAISWSGGSTYYADSVKGRFTISRDNAKNTVYLQMNSLKPEDTAVYYCNAVLYRFAYNYWGQGTQVTVSS | low polyreactivity
11 | QVQLVESGGGLVQAGGSLRLSCAASGITFTVYAMGWYRQAPGKERELVAAISQSGGSTYYADSVKGRFTISRDNAKNTVYLQMNSLNPEYTAVYDCNSDTVWGPYRSYIPFDYWGQGTQVNVSS | low polyreactivity
12 | QVQLVESGGGLVQAGGSLRLSCAASGITFTWYAMGWYRQAPGKERELVAAISGGGSTYYVDSVKGRFTISRDNAKNTVYLQMNSLKPEDTAVYYCAARYSWTRRTMYYWGQGTQVTVSS | high polyreactivity
13 | QVQLVESGGGLVQAGGSLRLSCAASGITFVAYAMGWYRQAPGKERELVAAISKSGGNTYYADSVKGRFTISRDNAKNTVYLQMNSLKPEDTAVYYCAAPRRYAWGQVNYWGQGTQVTVSS | high polyreactivity
14 | QVQLVESGGGLVQAGGSLRLSCAASGITFVGNAMGWYRQAPGKERELVAGIRGNGGSTYYADSVKGRFTISRDNAKNTVYLQMNSLKPEDTAVYYCAAAAYYADFDYWGQGTQVTVSS | low polyreactivity
15 | QVQLVESGGGLVQAGGSLRLSCAASGITFVGNDMGWYRQAPGKERELVATISSSGTRTYYADSVKGRFTISRDNAKNTVYLLMNSLKPEDTAVYYCAARWRSYITYWFDYWGQGTQVTVSS | low polyreactivity
16 | QVQLVESGGGLVQAGGSLRLSCAASGITFVRNAMGWYRQAPGKEREFVAAISWSGGSTYYADSVKGRFTISRDNAKNTVYLQMNSLKPEDTAVYYCAKRSRGVKYDYWGQGTQVTVSS | high polyreactivity
17 | QVQLVESGGGLVQAGGSLRLSCAASGITFVRNAMGWYRQAPGKERELVAAITSRGGITYYADSVKGRFTISRDNAKNTVYLQMNSLKPEDTAVYYCNKTRGYAVNGYNYWGQGTQVTVSS | high polyreactivity
